The numbers were not newly measured in PMC6627586, which cites them from elsewhere.

As usually defined, the Kd is the constant that tells how readily two partners part at equilibrium.

In the data set the target is ceruloplasmin (Homo sapiens) (UniProt P00450).
UniProt P00450, sequence (P00450 20-1065): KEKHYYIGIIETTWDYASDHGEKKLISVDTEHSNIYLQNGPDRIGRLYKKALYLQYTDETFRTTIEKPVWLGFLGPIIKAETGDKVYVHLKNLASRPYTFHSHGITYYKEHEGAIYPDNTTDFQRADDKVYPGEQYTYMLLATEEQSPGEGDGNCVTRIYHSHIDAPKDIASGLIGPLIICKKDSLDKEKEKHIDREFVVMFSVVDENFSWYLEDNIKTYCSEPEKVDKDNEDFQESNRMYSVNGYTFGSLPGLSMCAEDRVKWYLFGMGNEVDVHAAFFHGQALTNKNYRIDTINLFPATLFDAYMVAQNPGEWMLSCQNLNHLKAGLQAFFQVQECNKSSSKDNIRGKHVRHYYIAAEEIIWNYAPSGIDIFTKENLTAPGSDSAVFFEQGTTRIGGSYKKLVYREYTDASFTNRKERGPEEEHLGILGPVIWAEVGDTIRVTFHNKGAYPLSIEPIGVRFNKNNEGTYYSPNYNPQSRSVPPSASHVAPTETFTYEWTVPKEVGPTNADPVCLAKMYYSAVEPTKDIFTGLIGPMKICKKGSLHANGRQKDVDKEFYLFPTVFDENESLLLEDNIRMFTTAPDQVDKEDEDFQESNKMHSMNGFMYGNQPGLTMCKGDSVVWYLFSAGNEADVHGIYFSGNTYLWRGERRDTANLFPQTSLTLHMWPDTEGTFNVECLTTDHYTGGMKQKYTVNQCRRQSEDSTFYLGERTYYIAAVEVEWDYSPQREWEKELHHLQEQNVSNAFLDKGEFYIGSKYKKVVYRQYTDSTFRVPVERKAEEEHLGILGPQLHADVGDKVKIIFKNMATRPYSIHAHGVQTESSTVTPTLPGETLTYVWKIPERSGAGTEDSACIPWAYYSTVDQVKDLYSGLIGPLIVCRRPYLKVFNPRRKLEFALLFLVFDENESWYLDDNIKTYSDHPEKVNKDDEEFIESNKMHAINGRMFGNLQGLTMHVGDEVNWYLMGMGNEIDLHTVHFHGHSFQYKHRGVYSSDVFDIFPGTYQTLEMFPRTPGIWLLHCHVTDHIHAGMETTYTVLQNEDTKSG

On to “CTR1 second extracellular loop fragment (from UniProt O15431)”, for which the Kd is 1500 nM.
